Measurements taken from paper PMC10925418, “Survivin Mediates Mitotic Onset in HeLa Cells Through Activation of the Cdk1-Cdc25B Axis” (Research Square, 2024).
Where no end group is shown, it is not given here.

B1: His-Cdk1 1–85 (domain or fragment)
chain: not shown
notes: Cdk1, human, residues 1-85, deletion mutant made by PCR; source: E. coli BL21, purified (Ni2+-charged agarose); not shown: His-tag, N-terminal, kept
B2: His-Cdk1 36–85 (domain or fragment)
chain: not shown
notes: Cdk1, human, residues 36-85, deletion mutant made by PCR; source: E. coli BL21, purified (Ni2+-charged agarose); not shown: His-tag, N-terminal, kept
B3: SUR A55-D70 peptide (peptide)
peptide: AQCFFCFKELEGWEPD
modifications: not fully specified (N-terminus); cysteine pairing not given here
notes: Survivin residues Ala55 through Asp70; the methods describe only one form of the peptide (biotin and tat at the N-terminus); also called Survivin peptide; Survivin A55-D70; source: synthetic peptide (f-BOC chemistry, HPLC purified; Peptron or W. M. Keck Biotechnology Research Center, Yale)
B4: GST-Survivin 1-70 (domain or fragment, UniProt O15392 1-70, looked up)
chain: MGAPTLPPAWQPFLKDHRISTFKNWPFLEGCACTPERMAEAGFIHCPTENEPDLAQCFFCFKELEGWEPD
notes: Survivin residues 1-70, deletion mutant made by PCR; also called Survivin N-terminus (first 70 amino acids); source: E. coli BL21, purified (glutathione agarose); not shown: GST, N-terminal, kept

Assays:
Details in all cases: both partners purified
GST-Survivin = target: T1, GST-Survivin (UniProt O15392 1-142); test: pull-down; GST pull-down: His-tagged recombinant proteins mixed with GST, GST-Survivin or GST-Survivin mutants; Western blotting
T1 construct: Survivin; the printed peptide 55-70 fits human Survivin; also called recombinant Survivin; pGST-Survivin product; source: E. coli BL21, purified (glutathione agarose); not shown: GST, N-terminal, kept

SUR A55-D70 peptide = target: B3; test: pull-down; streptavidin-binding assay: 50 ug biotinylated peptide bound to streptavidin agarose, mixed with recombinant His-Cdk1 fragments; Western blotting
His-Cdk1 1–183 = target: T2, His-Cdk1 1–183 (human, UniProt P06493 1-183); test: as above
T2 construct: source: E. coli BL21, purified (Ni2+-charged agarose); not shown: His-tag, N-terminal, kept
T2 sequence (P06493 1-183): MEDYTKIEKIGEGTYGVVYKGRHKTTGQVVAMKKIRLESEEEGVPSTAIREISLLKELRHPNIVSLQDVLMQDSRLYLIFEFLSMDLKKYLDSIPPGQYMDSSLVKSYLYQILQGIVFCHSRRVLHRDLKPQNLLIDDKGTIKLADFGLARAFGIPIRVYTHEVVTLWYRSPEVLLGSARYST

His-Cdk1 1–85 = target: B1; test: as above
Sequence of His-Cdk1 1–85 (P06493 1-85): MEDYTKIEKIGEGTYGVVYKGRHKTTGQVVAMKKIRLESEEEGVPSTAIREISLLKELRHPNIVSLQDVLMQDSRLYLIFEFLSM

His-Cdk1 9–85 = target: T3, His-Cdk1 9–85 (human, UniProt P06493 9-85); test: as above
T3 construct: Cdk1, human, residues 9-85, deletion mutant made by PCR; source: E. coli BL21, purified (Ni2+-charged agarose); not shown: His-tag, N-terminal, kept
T3 sequence (P06493 9-85): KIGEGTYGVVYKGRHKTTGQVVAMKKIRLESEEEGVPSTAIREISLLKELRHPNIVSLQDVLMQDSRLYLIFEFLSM

His-Cdk1 = target: T4, His-Cdk1 (human, UniProt P06493 1-297); test: pull-down; GST pull-down: His-tagged recombinant proteins mixed with GST, GST-Survivin or GST-Survivin mutants; Western blotting
T4 construct: Cdk1, human, full-length cDNA BC014563 subcloned into pRSETa; also called recombinant His-Cdk1; Cdk1 protein kinase; source: E. coli BL21, purified (Ni2+-charged agarose); not shown: His-tag, N-terminal, kept
T4 sequence (P06493 whole entry): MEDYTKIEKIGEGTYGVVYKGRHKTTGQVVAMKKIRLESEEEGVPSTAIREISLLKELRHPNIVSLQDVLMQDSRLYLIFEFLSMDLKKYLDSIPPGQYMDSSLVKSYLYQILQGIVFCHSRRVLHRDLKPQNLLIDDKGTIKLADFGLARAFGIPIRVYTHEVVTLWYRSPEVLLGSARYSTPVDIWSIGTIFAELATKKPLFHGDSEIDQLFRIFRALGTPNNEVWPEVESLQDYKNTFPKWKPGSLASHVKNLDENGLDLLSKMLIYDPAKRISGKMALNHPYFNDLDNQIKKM

B1: binds (GST-Survivin).

B2: binds (SUR A55-D70 peptide).

B3: binds (His-Cdk1 1–183); binds (His-Cdk1 1–85); binds (His-Cdk1 9–85).

B4: binds (His-Cdk1).
